Test results as given in paper PMC6783313.

Target: ClpP1(S98A) from Listeria monocytogenes (Listeria monocytogenes)
Test: cryo-EM structure

ClpP1(S98A) from Listeria monocytogenes (natural protein)
stoichiometry N: 7
